Test results published in publication PMC10865538 (BMC Infectious Diseases, 2024).

Molecular target: T1, recombinant wild-type RBD-Fc (Sino Biological, 40,592-V02H) (SARS-CoV-2, UniProt P0DTC2)
T1 construct: also called Fc-tagged SARS-CoV-2 RBD; source: bought: Sino Biological
Experiment: BLI
Settings: both partners purified

B1: sdAb39 (VHH)
VHH: EVQLVESGGGLVQPGGSLRLSCAASGNTSTRHPMSWVRQAPGKGLELVASIGRGEITYYADSVKGRFTISRDNSKNTLYLQMNSLRAEDTAVYYCAAFVDFLSRHNSRRPYPHGYWGQGTLVTVSS
Kd: 56 nM
